Data as given in patent US20240336947.

Molecular target: deglucosylated type IV collagen

B1: R699, mimiviral collagen galactosylhydroxylysyl glucosyltransferase (GGT) (protein)
chain: MEQSNNDDNLLVLGIGISVHKTDGVLRFEKYCQAHNLQYMIVGEGKKWNGGNLESEAGGGQKINELLIALESIKDNKLIVVCDTYDLIPLSGPEEILRKYRFLTPDNKVVFSSELYCWPDASLVERYPKVDTKYKYLNSGAFMGYRDDIYEMIKNGVKDRDDDQLFFSIKFIETDKIVLDYKCELFQAMYRCNSDLVVHKNRIFNGYTNSYPVFAHGNGPAKKLLNHMEGYFMTEPIDGSSNTINTFKLDNEPKVFFALYVDSNDLSALKQFLGKVASIQYGNKVIYLYDRSDNEQNRKLIQISYPNYHTGVTKYVFDDFKKSDAQFYFLLEQNCIITKKDILHELIMQVKDNHRVISPMIGYEQNSTRTNFWGDIEDGYYKRSENYLDLAKHKVRGLWNVPYVYGVILMHESVVRNWDLSMVKYNDKDMDLCFSLRKHTIFMYMINNNNYGYMV
glucosylation of type IV collagen detected by LC-MS with UDP-[UL-13C6]-glucose: R699 (FIG. 4C,4D) glucosylates collagen peptidyl galactosylhydroxylysine to [13C6]-glucosylgalactosylhydroxylysine
